Test results as given in patent publication US20250003951A1 (OXFORD UNIVERSITY INNOVATION, published 2025).

T1: OX747-158 (human)
T1 peptide: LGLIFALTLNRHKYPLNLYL

T2: OX289-073 (human)
T2 peptide: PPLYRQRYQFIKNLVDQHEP

T3: OX1149-190 (human)
T3 peptide: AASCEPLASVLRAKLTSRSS

T4: OX289-074 (human)
T4 peptide: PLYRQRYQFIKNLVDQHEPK

T5: OX747-157 (human)
T5 peptide: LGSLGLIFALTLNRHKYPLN

B1: OX747 Peptides 157/158 clone 3 TCR (TCR, V domains shown)
V domain 1: QKEVEQNSGPLSVPEGAIASLNCTYSDRGSQSFFWYRQYSGKSPELIMFIYSNGDKEDGRFTAQLNKASQYVSLLIRDSQPSDSATYLCAGRQTSYDKVIFGPGTSLSVIP
V domain 2: not shown
B2: OX747 Peptides 157/158 clone 2 TCR (TCR, V domains shown)
V domain 1: AQKVTQAQTEISVVEKEDVTLDCVYETRDTTYYLFWYKQPPSGELVFLIRRNSFDEQNEISGRYSWNFQKSTSSFNFTITASQVVDSAVYFCALSEATYNTDKLIFGTGTRLQVFP
V domain 2: ETGVTQSPTHLIKTRGQQVTLRCSSQSGHNTVSWYQQALGQGPQFIFQYYREEENGRGNFPPRFSGLQFPNYSSELNVNALELDDSALYLCASSSTGTDYGYTFGSGTRLTVVE
B3: OX747 Peptides 157/158 clone 5 TCR (TCR, V domains shown)
V domain 1: GQQLNQSPQSMFIQEGEDVSMNCTSSSIFNTWLWYKQDPGEGPVLLIALYKAGELTSNGRLTAQFGITRKDSFLNISASIPSDVGIYFCAGQQKTSGSRLTFGEGTQLTVNP
V domain 2: DGGITQSPKYLFRKEGQNVTLSCEQNLNHDAMYWYRQDPGQGLRLIYYSQIVNDFQKGDIAEGYSVSREKKESFPLTVTSAQKNPTAFYLCASSSPRDRVGQPQHFGDGTRLSILE
B4: OX747 Peptides 157/158 clone 4 TCR (TCR, V domains shown)
V domain 1: AQKVTQAQTEISVVEKEDVTLDCVYETRDTTYYLFWYKQPPSGELVFLIRRNSFDEQNEISGRYSWNFQKSTSSFNFTITASQVVDSAVYFCALSEMNRDDKIIFGKGTRLHILP
V domain 2: NAGVMQNPRHLVRRRGQEARLRCSPMKGHSHVYWYRQLPEEGLKFMVYLQKENIIDESGMPKERFSAEFPKEGPSILRIQQVVRGDSAAYFCASSPTGVSGNTIYFGEGSWLTVVE
B5: OX747 Peptides 157/158 clone 1 TCR (TCR)
TCR alpha 1: KNEVEQSPQNLTAQEGEFITINCSYSVGISALHWLQQHPGGGIVSLFMLSSGKKKHGRLIATINIQEKHSSLHITASHPRDSAVYICAVSTGGATNKLIFGTGTLLAVQPNIQNPDPAVYQLRD
TCR alpha 2: KNEVEQSPQNLTAQEGEFITINCSYSVGISALHWLQQHPGGGIVSLFMLSSGKKKHGRLIATINIQEKHSSLHITASHPRDSAVYICAVQEGETSGSRLTFGEGTQLTVNPDIQNPDPAVYQLRD
TCR beta: NAGVTQTPKFQVLKTGQSMTLQCAQDMNHEYMSWYRQDPGMGLRLIHYSVGAGITDQGEVPNGYNVSRSTTEDFPLRLLSAAPSQTSVYFCASSPGFNGNTIYFGEGSWLTVVEDLNKVFPPEVAVFEPS
B6: OX289 Peptides 73/74 clone 1 TCR (TCR, V domains shown)
V domain 1: RGEDVEQSLFLSVREGDSSVINCTYTDSSSTYLYWYKQEPGAGLQLLTYIFSNMDMKQDQRLTVLLNKKDKHLSLRIADTQTGDSAIYFCAESPSDGQKLLFARGTMLKVDL
V domain 2: EAQVTQNPRYLITVTGKKLTVTCSQNMNHEYMSWYRQDPGLGLRQIYYSMNVEVTDKGDVPEGYKVSRKEKRNFPLILESPSPNQTSLYFCASSLRQGISPEQFFGPGTRLTVLE
B7: OX289 Peptides 73/74 clone 2 TCR (TCR)
TCR alpha: ELKVEQNPLFLSMQEGKNYTIYCNYSTTSDRLYWYRQDPGKSLESLFVLLSNGAVKQEGRLMASLDTKARLSTLHITAAVHDLSATYFCAVEETSGSRLTFGEGTQLTVNPDIQNPDPAVYQLRD
TCR beta 1: EAQVTQNPRYLITVTGKKLTVTCSQNMNHEYMSWYRQDPGLGLRQIYYSMNVEVTDKGDVPEGYKVSRKEKRNFPLILESPSPNQTSLYFCASSLRQGISPEQFFGPGTRLTVLEDLKNVFPPEVAVFEPS
TCR beta 2: EAQVTQNPRYLITVTGKKLTVTCSQNMNHEYMSWYRQDPGLGLRQIYYSMNVEVTDKGDVPEGYKVSRKEKRNFPLILESPSPNQTSLYFCASSERQGITEAFFGQGTRLTVVEDLNKVFPPEVAVFEPS
B8: OX289 Peptides 73/74 clone 3 TCR (TCR)
TCR alpha: AQSVTQLDSQVPVFEEAPVELRCNYSSSVSVYLFWYVQYPNQGLQLLLKYLSGSTLVKGINGFEAEFNKSQTSFHLRKPSVHISDTAEYFCAVSGTGANSKLTFGKGITLSVRPDIQNPDPAVYQLRD
TCR beta 1: GAGVSQSPSNKVTEKGKDVELRCDPISGHTALYWYRQSLGQGLEFLIYFQGNSAPDKSGLPSDRFSAERTGGSVSTLTIQRTQQEDSAVYLCASSDPISGRGDEQFFGPGTRLTVLEDLKNVFPPEVAVFEPS
TCR beta 2: GAGVSQSPSNKVTEKGKDVELRCDPISGHTALYWYRQSLGQGLEFLIYFQGNSAPDKSGLPSDRFSAERTGGSVSTLTIQRTQQEDSAVYLCASSFGGGAWNEQFFGPGTRLTVLEDLKNVFPPEVAVFEPS
B9: OX1149 Peptide 190 clone 2 TCR (TCR, V domains shown)
V domain 1: SQQGEEDPQALSIQEGENATMNCSYKTSINNLQWYRQNSGRGLVHLILIRSNEREKHSGRLRVTLDTSKKSSSLLITASRAADTASYFCAAMYSGGGADGLTFGKGTHLIIQP
V domain 2: EPEVTQTPSHQVTQMGQEVILRCVPISNHLYFYWYRQILGQKVEFLVSFYNNEISEKSEIFDDQFSVERPDGSNFTLKIRSTKLEDSAMYFCASSTQGQAYEQYFGPGTRLTVTE
B10: OX1149 Peptide 190 clone 4 TCR (TCR, V domains shown)
V domain 1: SQQGEEDPQALSIQEGENATMNCSYKTSINNLQWYRQNSGRGLVHLILIRSNEREKHSGRLRVTLDTSKKSSSLLITASRAADTASYFCATKGGNNRLAFGKGNQVVVIP
V domain 2: EPEVTQTPSHQVTQMGQEVILRCVPISNHLYFYWYRQILGQKVEFLVSFYNNEISEKSEIFDDQFSVERPDGSNFTLKIRSTKLEDSAMYFCASSAWTGETGYTFGSGTRLTVVE
B11: OX1149 Peptide 190 clone 3 TCR (TCR, V domains shown)
V domain 1: GENVEQHPSTLSVQEGDSAVIKCTYSDSASNYFPWYKQELGKRPQLIIDIRSNVGEKKDQRIAVTLNKTAKHFSLHITETQPEDSAVYFCAARGGSNYKLTFGKGTLLTVNP
V domain 2: DAGVIQSPRHEVTEMGQEVTLRCKPISGHDYLFWYRQTMMRGLELLIYFNNNVPIDDSGMPEDRFSAKMPNASFSTLKIQPSEPRDSAVYFCASSTGGEQYFGPGTRLTVTE
B12: OX1149 Peptide 190 clone 5 TCR (TCR, V domains shown)
V domain 1: DQQVKQNSPSLSVQEGRISILNCDYTNSMFDYFLWYKKYPAEGPTFLISISSIKDKNEDGRFTVFLNKSAKHLSLHIVPSQPGDSAVYFCAATRAGGTSYGKLTFGQGTILTVHP
V domain 2: SQTIHQWPATLVQPVGSPLSLECTVEGTSNPNLYWYRQAAGRGLQLLFYSVGIGQISSEVPQNLSASRPQDRQFILSSKKLLLSDSGFYLCAWSVLAGVSQYFGPGTRLLVLE
B13: OX1149 Peptide 190 clone 1 TCR (TCR, V domains shown)
V domain 1: SQQGEEDPQALSIQEGENATMNCSYKTSINNLQWYRQNSGRGLVHLILIRSNEREKHSGRLRVTLDTSKKSSSLLITASRAADTASYFCATDEAAGNKLTFGGGTRVLVKP
V domain 2: EPEVTQTPSHQVTQMGQEVILRCVPISNHLYFYWYRQILGQKVEFLVSFYNNEISEKSEIFDDQFSVERPDGSNFTLKIRSTKLEDSAMYFCASKRESLATGELFFGEGSRLTVLE

Target: T1, OX747-158
Assay: cell-based or functional assay

Clone size (percent repertoire), IFNγ+ sorted T cells after peptide stimulation	Binder
8.7 % of repertoire	B1
9.8 % of repertoire	B2
7.7 % of repertoire	B3
7.9 % of repertoire	B4
15.5 % of repertoire	B5

Target: T2, OX289-073
Assay: cell-based or functional assay

Clone size (percent repertoire), IFNγ+ sorted T cells after peptide stimulation	Binder
32.3 % of repertoire	B6
25.6 % of repertoire	B7
8.67 % of repertoire	B8

Target: T3, OX1149-190
Assay: cell-based or functional assay

Clone size (percent repertoire), IFNγ+ sorted T cells after peptide stimulation	Binder
17.3 % of repertoire	B9
5.7 % of repertoire	B10
9 % of repertoire	B11
4.8 % of repertoire	B12
18.3 % of repertoire	B13

Target: T4, OX289-074
Assay: cell-based or functional assay

Clone size (percent repertoire), IFNγ+ sorted T cells after peptide stimulation	Binder
32.3 % of repertoire	B6
25.6 % of repertoire	B7
8.67 % of repertoire	B8

Target: T5, OX747-157
Assay: cell-based or functional assay

Clone size (percent repertoire), IFNγ+ sorted T cells after peptide stimulation	Binder
8.7 % of repertoire	B1
9.8 % of repertoire	B2
7.7 % of repertoire	B3
7.9 % of repertoire	B4
15.5 % of repertoire	B5
